# Laboratory results from the RNAGym collection of RNA variant scans (doi:10.7554/elife.80360).
# B1: CPEB3 Ribozyme (parent)
# chain: GGGGGCCACAGCAGAAGCGUUCACGUCGCGGCCCCUGUCAGAUUCUGGUGAAUCUGCGAAUUCUGCUGU
# Variants of: B1
# Assay: self-cleavage, relative activity (ratio to wild type); higher = more cleavage; co-transcriptional
row,Variant,self-cleavage
1,GGGGGCCACAGCAGAAGCGUUCACGUCGCGGCCCCUGUCAGAUUCUGAUGAAUCUGCGAUUUCUGCUGU,0.516
2,GGGGGCCACAGCAGAAGCGUUCACGUCGCGGCCCCUGUCAGAUUCUGAUGAAUCUGCGACUUCUGCUGU,0.434
3,GGGGGCCACAGCAGAAGCGUUCACGUCGCGGCCCCUGUCAGAUUCUGAUGAAUCUGCGAAUUCUGCUGA,1.02
4,GGGGGCCACAGCAGAAGCGUUCACGUCGCGGCCCCUGUCAGAUUCUGAUGAAUCUGCGAAUUCUGCUGC,1.06
5,GGGGGCCACAGCAGAAGCGUUCACGUCGCGGCCCCUGUCAGAUUCUGAUGAAUCGGCGAAUUCUGCUGU,0.993
6,GGGGGCCACAGCAGAAGCGUUCACGUCGCGGCCCCUGUCAGAUUCUGAUGAAUCCGCGAAUUCUGCUGU,0.949
7,GGGGGCCACAGCAGAAGCGUUCACGUCGCGGCCCCUGUCAGAUUCUGAUGAAUCUGCGAAUUCUACUGU,0.992
8,GGGGGCCACAGCAGAAGCGUUCACGUCGCGGCCCCUGUCAGAUUCUGAUGAAUCUGCGAAUUCUCCUGU,0.81
9,GGGGGCCACAGCAGAAGCGUUCACGUCGCGGCCCCUGUCAGAUUCUGAUGAAUCUGCGAAUUCUUCUGU,0.914
10,GGGGGCCACAGCAGAAGCGUUCACGUCGCGGCCCCUGUCAGAUUCUUGUGAAUCUGCGAAUUCUGCCGU,1
11,GGGGGCCACAGCAGAAGCGUUCACGUCGCGGCCCCUGUCAGAUUCUGCUGAAUCUGCGGAUUCUGCUGU,0.989
12,GGGGGCCACAGCAGAAGCGUUCACGUCGCGGCCCCUGUCAGAUUCUGCUGAAUCUGCGCAUUCUGCUGU,0.797
13,GGGGGCCACAGCAGAAGCGUUCACGUCGCGGCCCCUGUCAGAUUCUGAUGAAUCUGCGAAUUCUGUUGU,0.99
14,GGGGGCCACAGCAGAAGCGUUCACGUCGCGGCCCCUGUCAGAUUCUGAUGAAUCUGCGAAUUCUGAUGU,0.877
15,GGGGGCCACAGCAGAAGCGUUCACGUCGCGGCCCCUGUCAGAUUCUGAUGAAUCUGCGAAUUCUGGUGU,0.942
16,GGGGGCCACAGCAGAAGCGUUCACGUCGCGGCCCCUGUCAGAUUCUGAUGAAUCUGCGAAUCCUGCUGU,0.952
17,GGGGGCCACAGCAGAAGCGUUCACGUCGCGGCCCCUGUCAGAUUCUGAUGAAUCUGCGAAUGCUGCUGU,0.868
18,GGGGGCCACAGCAGAAGCGUUCACGUCGCGGCCCCUGUCAGAUUCUGAUGACUCUGCGAAUUCUGCUGU,0.975
19,GGGGGCCACAGCAGAAGCGUUCACGUCGCGGCCCCUGUCAGAUUCUGAUGAUUCUGCGAAUUCUGCUGU,0.996
20,GGGGGCCACAGCAGAAGCGUUCACGUCGCGGCCCCUGUCAGAUUCUGAUGAGUCUGCGAAUUCUGCUGU,0.989
21,GGGGGCCACAGCAGAAGCGUUCACGUCGCGGCCCCUGUCAGAUUCUGAUGAAUCUACGAAUUCUGCUGU,0.992
22,GGGGGCCACAGCAGAAGCGUUCACGUCGCGGCCCCUGUCAGAUUCUGAUGAAUCUCCGAAUUCUGCUGU,0.949
23,GGGGGCCACAGCAGAAGCGUUCACGUCGCGGCCCCUGUCAGAUUCUGAUGAAUCUGCGAAUUCUGCUGU,1
24,GGGGGCCACAGCAGAAGCGUUCACGUCGCGGCCCCUGUCAGAUUCUGCUGAAUCUGCGAAUUCUGCUGU,0.999
25,GGGGGCCACAGCAGAAGCGUUCACGUCGCGGCCCCUGUCAGAUUCUGCUGAAUCUGCGAAUUCUGGUGU,0.934
26,GGGGGCCACAGCAGAAGCGUUCACGUCGCGGCCCCUGUCAGAUUCUGCUGAAUCUGCGAAUUCUGAUGU,0.91

row,Variant,self-cleavage
1,GGGGGCCACAGCAGAAGCGUUCACGUCGCGGCCCCUGUCAGAUUCUGCUGAAUCUGCGACUUCUGCUGU,0.239
2,GGGGGCCACAGCAGAAGCGUUCACGUCGCGGCCCCUGUCAGAUUCUGCUGAAUCUGCGAUUUCUGCUGU,0.552
3,GGGGGCCACAGCAGAAGCGUUCACGUCGCGGCCCCUGUCAGAUUCUUGUGAAUCUGCGAAUUCUGCUGC,1.06
4,GGGGGCCACAGCAGAAGCGUUCACGUCGCGGCCCCUGUCAGAUUCUUGUGAAUCUGCGAAUUCUGCUGA,1.02
5,GGGGGCCACAGCAGAAGCGUUCACGUCGCGGCCCCUGUCAGAUUCUUGUGAAUCUGCGAAUUCUGCUGG,1.05
6,GGGGGCCACAGCAGAAGCGUUCACGUCGCGGCCCCUGUCAGAUUCUGAUGAAUCUGCAAAUUCUGCUGU,0.961
7,GGGGGCCACAGCAGAAGCGUUCACGUCGCGGCCCCUGUCAGAUUCUGAUGAAUGUGCGAAUUCUGCUGU,1.02
8,GGGGGCCACAGCAGAAGCGUUCACGUCGCGGCCCCUGUCAGAUUCUGAUGAAUAUGCGAAUUCUGCUGU,0.998
9,GGGGGCCACAGCAGAAGCGUUCACGUCGCGGCCCCUGUCAGAUUCUGAUGAAUUUGCGAAUUCUGCUGU,1.01
10,GGGGGCCACAGCAGAAGCGUUCACGUCGCGGCCCCUGUCAGAUUCUGAUCAAUCUGCGAAUUCUGCUGU,0.974
11,GGGGGCCACAGCAGAAGCGUUCACGUCGCGGCCCCUGUCAGAUUCUGAUUAAUCUGCGAAUUCUGCUGU,0.988
12,GGGGGCCACAGCAGAAGCGUUCACGUCGCGGCCCCUGUCAGAUUCUGAUAAAUCUGCGAAUUCUGCUGU,0.985
13,GGGGGCCACAGCAGAAGCGUUCACGUCGCGGCCCCUGUCAGAUUCUGCUUAAUCUGCGAAUUCUGCUGU,1.01
14,GGGGGCCACAGCAGAAGCGUUCACGUCGCGGCCCCUGUCAGAUUCUGCUAAAUCUGCGAAUUCUGCUGU,1.01
15,GGGGGCCACAGCAGAAGCGUUCACGUCGCGGCCCCUGUCAGAUUCUGCUCAAUCUGCGAAUUCUGCUGU,0.944
16,GGGGGCCACAGCAGAAGCGUUCACGUCGCGGCCCCUGUCAGAUUCUGAUGAAUCUGCGAAUUUUGCUGU,0.959
17,GGGGGCCACAGCAGAAGCGUUCACGUCGCGGCCCCUGUCAGAUUCUGAUGAAUCUGCGAAUUGUGCUGU,0.898
18,GGGGGCCACAGCAGAAGCGUUCACGUCGCGGCCCCUGUCAGAUUCUGAUGAAUCUGCGAAUUAUGCUGU,0.932
19,GGGGGCCACAGCAGAAGCGUUCACGUCGCGGCCCCUGUCAGAUUCUGAUGAAUCUGCGAAUUCGGCUGU,0.902
20,GGGGGCCACAGCAGAAGCGUUCACGUCGCGGCCCCUGUCAGAUUCUGAUGAAUCUGCGAAUUCAGCUGU,0.946
21,GGGGGCCACAGCAGAAGCGUUCACGUCGCGGCCCCUGUCAGAUUCUGAUGAAUCUGCGAAUUCCGCUGU,1
22,GGGGGCCACAGCAGAAGCGUUCACGUCGCGGCCCCUGUCAGAUUCUUGUGAAUCUGCGAAGUCUGCUGU,0.906
23,GGGGGCCACAGCAGAAGCGUUCACGUCGCGGCCCCUGUCAGAUUCUUGUGAAUCUGCGAAAUCUGCUGU,0.984
24,GGGGGCCACAGCAGAAGCGUUCACGUCGCGGCCCCUGUCAGAUUCUGCUGGAUCUGCGAAUUCUGCUGU,0.995
25,GGGGGCCACAGCAGAAGCGUUCACGUCGCGGCCCCUGUCAGAUUCUGCUGAAUCUACGAAUUCUGCUGU,0.988
26,GGGGGCCACAGCAGAAGCGUUCACGUCGCGGCCCCUGUCAGAUUCUGCUGAAUUUGCGAAUUCUGCUGU,1.04

row,Variant,self-cleavage
1,GGGGGCCACAGCAGAAGCGUUCACGUCGCGGCCCCUGUCAGAUUCUGAUGAAUCUGCGGAUUCUGCUGU,1.05
2,GGGGGCCACAGCAGAAGCGUUCACGUCGCGGCCCCUGUCAGAUUCUGAUGAAUCUGCGUAUUCUGCUGU,0.817
3,GGGGGCCACAGCAGAAGCGUUCACGUCGCGGCCCCUGUCAGAUUCUGAUGAAUCUGCGCAUUCUGCUGU,0.83
4,GGGGGCCACAGCAGAAGCGUUCACGUCGCGGCCCCUGUCAGAUUCUGAUGAAUCUGCGAAUUCUGCUCU,0.98
5,GGGGGCCACAGCAGAAGCGUUCACGUCGCGGCCCCUGUCAGAUUCUUGUGAAUCUGCGAAUUCGGCUGU,0.913
6,GGGGGCCACAGCAGAAGCGUUCACGUCGCGGCCCCUGUCAGAUUCUGAUGAAUCUGCGAAGUCUGCUGU,0.919
7,GGGGGCCACAGCAGAAGCGUUCACGUCGCGGCCCCUGUCAGAUUCUGAUGAAUCUGCGAACUCUGCUGU,0.852
8,GGGGGCCACAGCAGAAGCGUUCACGUCGCGGCCCCUGUCAGAUUCUGAUGAAUCUGCGAAAUCUGCUGU,0.957
9,GGGGGCCACAGCAGAAGCGUUCACGUCGCGGCCCCUGUCAGAUUCUGCUGACUCUGCGAAUUCUGCUGU,0.994
10,GGGGGCCACAGCAGAAGCGUUCACGUCGCGGCCCCUGUCAGAUUCUGCUGAUUCUGCGAAUUCUGCUGU,0.971
11,GGGGGCCACAGCAGAAGCGUUCACGUCGCGGCCCCUGUCAGAUUCUGCUGAGUCUGCGAAUUCUGCUGU,1.04
12,GGGGGCCACAGCAGAAGCGUUCACGUCGCGGCCCCUGUCAGAUUCUGAUGUAUCUGCGAAUUCUGCUGU,0.989
13,GGGGGCCACAGCAGAAGCGUUCACGUCGCGGCCCCUGUCAGAUUCUGAUGCAUCUGCGAAUUCUGCUGU,1
14,GGGGGCCACAGCAGAAGCGUUCACGUCGCGGCCCCUGUCAGAUUCUGAGGAAUCUGCGAAUUCUGCUGU,1.01
15,GGGGGCCACAGCAGAAGCGUUCACGUCGCGGCCCCUGUCAGAUUCUGACGAAUCUGCGAAUUCUGCUGU,0.959
16,GGGGGCCACAGCAGAAGCGUUCACGUCGCGGCCCCUGUCAGAUUCUGAUGAAUCUGUGAAUUCUGCUGU,0.374
17,GGGGGCCACAGCAGAAGCGUUCACGUCGCGGCCCCUGUCAGAUUCUGAUGAAUCUGGGAAUUCUGCUGU,0.31
18,GGGGGCCACAGCAGAAGCGUUCACGUCGCGGCCCCUGUCAGAUUCUGCUGAAUCUGAGAAUUCUGCUGU,0.309
19,GGGGGCCACAGCAGAAGCGUUCACGUCGCGGCCCCUGUCAGAUUCUGCUGAAUCUGGGAAUUCUGCUGU,0.285
20,GGGGGCCACAGCAGAAGCGUUCACGUCGCGGCCCCUGUCAGAUUCUUGUGAAUCUGCGAAUCCUGCUGU,0.912
21,GGGGGCCACAGCAGAAGCGUUCACGUCGCGGCCCCUGUCAGAUUCUUGUGAAUCUGCGAAUGCUGCUGU,0.903
22,GGGGGCCACAGCAGAAGCGUUCACGUCGCGGCCCCUGUCAGAUUCUGAUGAAUCUGCGAAUUCUGCAGU,1.01
23,GGGGGCCACAGCAGAAGCGUUCACGUCGCGGCCCCUGUCAGAUUCUGAUGAAUCUGCGAAUUCUGCGGU,1.06
24,GGGGGCCACAGCAGAAGCGUUCACGUCGCGGCCCCUGUCAGAUUCUGAUGAAUCUGCGAAUUCUGCCGU,0.958
25,GGGGGCCACAGCAGAAGCGUUCACGUCGCGGCCCCUGUCAGAUUCUGCUGAAUCUGCGAAUUAUGCUGU,0.931
26,GGGGGCCACAGCAGAAGCGUUCACGUCGCGGCCCCUGUCAGAUUCUGCUGAAUCUGCGAAUUUUGCUGU,0.981
